The source of these data is article PMC7658645, “Aptamer-Based Western Blot for Selective Protein Recognition”.

One series addresses Maltose-binding protein (Escherichia coli (strain K12), UniProt P0AEX9 27-396). In words: Western blot, SDS-denatured protein on nitrocellulose. As to conditions: label: 5'-Cy5.5. On the technique in general: In western blotting, separated proteins are transferred to a membrane and probed.
The target in a further series is histone H4 (UniProt P62805 2-103). In words: aptamer blot; on nitrocellulose; all four histone types labeled without selectivity; Dot blot/aptamer blot: 20 mM Tris-HCl, 100 mM NaCl, 5 mM MgCl2, 0.1% BSA (pH not given), 50 nM aptamer in dot blot (membranes equilibrated at 4 C), blots 1 h af.

B1: G1 (ssDNA)
DNA: ATACGACTCACTATTAGGGACAAAGCTGACAACCCTTTCATAATCTAACTACATTTATGTGCTAGACTACTGACTAC
With B1, the binding result in the series with Maltose-binding protein is given as “no binding”. GAGTGTGGTTCCCGGGAGGGCGCCTACGGGTCCCGTATTCGGATTTGTGC (ssDNA) [3.13]: the binding result with histone H4 is on record as “binds”.
